Laboratory results published in US11278600B2, “Human alpha-galactosidase variants” (Codexis, Inc., priority 2014, dated 2022).
Residue numbers refer to the chain shown, from its start.

B1: 277 (protein)
chain: LDNGLARTPTMGWLHWERFMCNLDCQEEPDSCISEKLFMEMAERMVSEGWKDAGYEYLCIDDCWMAPQRDSEGRLQADPQRFPHGIRQLANYVHSKGLKLGIYADVGNKTCAGFPGSFGYYDIDAQTFADWGVDLLKFDGCYCDSLENLADGYKHMSLALNRTGRSIVYSCEWPLYMWPFQKPNYTEIRQYCNHWRNFADIDDSWASIKSILDWTSRNQERIVDVAGPGGWNDPDMLVIGNFGLSWDQQVTQMALWAIMAAPLFMSNDLRHISPQAKALLQDKDVIAINQDPLGKQGYQLRQGDNFEVWERPLSGDAWAVAMINRQEIGGPRSYTIPVASLGKGVACNPACFITQLLPVKRKLGFYDWDSRLRSHINPTGTVLLQLENTMQMSLKDLL
modifications: Synthetic Polypeptide sequence of Variant No. 277 of mature Human GLA
B2: 278 (protein)
chain: B1 chain with P337A, A350G
modifications: Synthetic Polypeptide sequence of Variant No. 278 of mature Human GLA
B3: 279 (protein)
chain: B1 chain with Q302K, D316L, P337A, A350G, D367E, D369T
modifications: Synthetic Polypeptide sequence of Variant No. 279 of mature Human GLA
B4: 280 (protein)
chain: B1 chain with D247N, Q302K, D316L, P337A
modifications: Synthetic Polypeptide sequence of Variant No. 280 of mature Human GLA
B5: 281 (protein)
chain: LDNGLARTPTMGWLHWERFMCNLDCQEEPDSCISEKLFMEMAERMVSEGWKDAGYEYLCIDDCWMAPQRDSEGRLQADPQRFPHGIRQLANYVHSKGLKLGIYADVGNKTCAGFPGSFGYYDIDAQTFADWGVDLLKFDGCYCDSLENLADGYKHMSLALNRTGRSIVYSCEWPLYMWPFQKPNYTEIRQYCNHWRNFADIDDSWASVKSILDWTSFNQEKIVDVAGPGGWNDPDMLVIGNFGLSWNQQVTQMALWAIMAAPLFMSNDLRHISPQAKALLQDKDVIAINQDPLGKQGYQLRQGDNFEVWERPLSGLAWAVAVINRQEIGGPRSYTIAVASLGDGVACNPACFITQLLPVKRKLGLYEWTSRLKSHINPTGTVLLQLENTMQMSLKDLL
modifications: Synthetic Polypeptide sequence of Variant No. 281 of mature Human GLA
B6: 282 (protein)
chain: B1 chain with R217F, D316L, D367E, D369T
modifications: Synthetic Polypeptide sequence of Variant No. 282 of mature Human GLA
B7: 283 (protein)
chain: B1 chain with R217F, Q302K, D316L, A350G
modifications: Synthetic Polypeptide sequence of Variant No. 283 of mature Human GLA
B8: 284 (protein)
chain: B5 chain with V208I, K221T, N247D, V322I, K373R, I376V
modifications: Synthetic Polypeptide sequence of Variant No. 284 of mature Human GLA
B9: 285 (protein)
chain: B1 chain with K96I, R217F, D247N, D316L, P337A, D367E, D369T
modifications: Synthetic Polypeptide sequence of Variant No. 285 of mature Human GLA
B10: 286 (protein)
chain: B1 chain with K96I, D316L, P337A, D367E, D369T
modifications: Synthetic Polypeptide sequence of Variant No. 286 of mature Human GLA
B11: 287 (protein)
chain: B1 chain with Q302K, D316L, A350G, D367E, D369T
modifications: Synthetic Polypeptide sequence of Variant No. 287 of mature Human GLA
B12: 288 (protein)
chain: B1 chain with K96I, Q302K, D316L, A350G
modifications: Synthetic Polypeptide sequence of Variant No. 288 of mature Human GLA
B13: 289 (protein)
chain: B1 chain with K96I, D247N, Q302K, D316L, P337A, A350G, D367E, D369T
modifications: Synthetic Polypeptide sequence of Variant No. 289 of mature Human GLA

Experiment: HTP-analysis of yeast culture supernatants, no challenge (MUGal hydrolysis)
Format: biochemical
Settings: activity of the variant/activity of Rd2BB (SEQ ID NO: 10), yeast culture supernatant
Method in brief: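 GLA variants expressed in yeast INVSc1, secreted into SD-Ura broth over 66-84 h at 30° C; clarified supernatants tested without challenge. Supernatant mixed with McIlvaine buffer pH 4.8 and 2 mM MUGal (citrate/KCl, pH 4.6), 37° C for 30-180 min, carbonate-quenched, fluorescence Ex 355/Em 448 nm.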

| Molecule | Relative Activity of GLA Variants After No Challenge (NC) |
| --- | --- |
| B1 | +++ (+++ = >2.5 relative activity over Rd2BB (SEQ ID NO: 10)) |
| B2 | +++ (+++ = >2.5 relative activity over Rd2BB (SEQ ID NO: 10)) |
| B3 | ++ (++ = 1.5 to 2.5 relative activity over Rd2BB (SEQ ID NO: 10)) |
| B4 | + (+ = 0.5 to 1.5 relative activity over Rd2BB (SEQ ID NO: 10)) |
| B5 | + (+ = 0.5 to 1.5 relative activity over Rd2BB (SEQ ID NO: 10)) |
| B6 | + (+ = 0.5 to 1.5 relative activity over Rd2BB (SEQ ID NO: 10)) |
| B7 | +++ (+++ = >2.5 relative activity over Rd2BB (SEQ ID NO: 10)) |
| B8 | +++ (+++ = >2.5 relative activity over Rd2BB (SEQ ID NO: 10)) |
| B9 | + (+ = 0.5 to 1.5 relative activity over Rd2BB (SEQ ID NO: 10)) |
| B10 | + (+ = 0.5 to 1.5 relative activity over Rd2BB (SEQ ID NO: 10)) |
| B11 | +++ (+++ = >2.5 relative activity over Rd2BB (SEQ ID NO: 10)) |
| B12 | +++ (+++ = >2.5 relative activity over Rd2BB (SEQ ID NO: 10)) |
| B13 | + (+ = 0.5 to 1.5 relative activity over Rd2BB (SEQ ID NO: 10)) |

Experiment: HTP-analysis of supernatants pretreated with acid (MUGal hydrolysis)
Format: biochemical
Settings: challenge at pH 4.2; activity of the variant/activity of Rd2BB (SEQ ID NO: 10); yeast culture supernatant
Method in brief: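 Fluorescence of MUGal hydrolysis (Ex. 355 nm, Em. 448 nm) is read after sodium carbonate quench. The enzyme source is INVSc1 yeast culture supernatant, first exposed to pH 3.3-4.3 McIlvaine buffer at 37° C. for 1-3 h, then reacted at pH 4.8 for 30-180 minutes.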

| Molecule | Relative Activity of GLA Variants After Challenge at pH 4.2 |
| --- | --- |
| B1 | +++ (+++ = >2.5 relative activity over Rd2BB (SEQ ID NO: 10)) |
| B2 | +++ (+++ = >2.5 relative activity over Rd2BB (SEQ ID NO: 10)) |
| B3 | +++ (+++ = >2.5 relative activity over Rd2BB (SEQ ID NO: 10)) |
| B4 | + (+ = 0.5 to 1.5 relative activity over Rd2BB (SEQ ID NO: 10)) |
| B5 | + (+ = 0.5 to 1.5 relative activity over Rd2BB (SEQ ID NO: 10)) |
| B6 | + (+ = 0.5 to 1.5 relative activity over Rd2BB (SEQ ID NO: 10)) |
| B7 | +++ (+++ = >2.5 relative activity over Rd2BB (SEQ ID NO: 10)) |
| B8 | +++ (+++ = >2.5 relative activity over Rd2BB (SEQ ID NO: 10)) |
| B9 | + (+ = 0.5 to 1.5 relative activity over Rd2BB (SEQ ID NO: 10)) |
| B10 | + (+ = 0.5 to 1.5 relative activity over Rd2BB (SEQ ID NO: 10)) |
| B11 | +++ (+++ = >2.5 relative activity over Rd2BB (SEQ ID NO: 10)) |
| B12 | +++ (+++ = >2.5 relative activity over Rd2BB (SEQ ID NO: 10)) |
| B13 | ++ (++ = 1.5 to 2.5 relative activity over Rd2BB (SEQ ID NO: 10)) |

Experiment: HTP-analysis of supernatants pretreated with base (MUGal hydrolysis)
Format: biochemical
Settings: challenge at pH 7.6; activity of the variant/activity of Rd2BB (SEQ ID NO: 10); yeast culture supernatant
Method in brief: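 GLA variants were secreted by transformed INVSc1 yeast grown 66-84 h at 30° C. Supernatants were exposed to neutral-to-basic buffers (pH 7.0-9.7) at 37° C for 1-18 h, then assayed with MUGal in acidic citrate/McIlvaine buffer, with fluorescence read after quenching.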

| Molecule | Relative Activity of GLA Variants After Challenge at pH 7.6 |
| --- | --- |
| B1 | +++ (+++ = >2.5 relative activity over Rd2BB (SEQ ID NO: 10)) |
| B2 | +++ (+++ = >2.5 relative activity over Rd2BB (SEQ ID NO: 10)) |
| B3 | +++ (+++ = >2.5 relative activity over Rd2BB (SEQ ID NO: 10)) |
| B4 | + (+ = 0.5 to 1.5 relative activity over Rd2BB (SEQ ID NO: 10)) |
| B5 | + (+ = 0.5 to 1.5 relative activity over Rd2BB (SEQ ID NO: 10)) |
| B6 | + (+ = 0.5 to 1.5 relative activity over Rd2BB (SEQ ID NO: 10)) |
| B7 | +++ (+++ = >2.5 relative activity over Rd2BB (SEQ ID NO: 10)) |
| B8 | +++ (+++ = >2.5 relative activity over Rd2BB (SEQ ID NO: 10)) |
| B9 | ++ (++ = 1.5 to 2.5 relative activity over Rd2BB (SEQ ID NO: 10)) |
| B10 | ++ (++ = 1.5 to 2.5 relative activity over Rd2BB (SEQ ID NO: 10)) |
| B11 | +++ (+++ = >2.5 relative activity over Rd2BB (SEQ ID NO: 10)) |
| B12 | +++ (+++ = >2.5 relative activity over Rd2BB (SEQ ID NO: 10)) |
| B13 | ++ (++ = 1.5 to 2.5 relative activity over Rd2BB (SEQ ID NO: 10)) |

Experiment: HTP-analysis of supernatants pretreated with bovine serum (MUGal hydrolysis)
Format: biochemical
Settings: activity of the variant/activity of Rd2BB (SEQ ID NO: 10), yeast culture supernatant
Method in brief: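 Yeast INVSc1 culture supernatants containing secreted GLA variants were mixed with bovine serum (20:80) and held 1 h at 37° C. Serum-treated samples then reacted with MUGal (4 mM stock) in citrate/McIlvaine buffer (pH 4.3/4.8) for 180 min at 37° C., were quenched with sodium carbonate, and read by fluorescence (Ex 355, Em 448 nm).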

| Molecule | Relative Activity of GLA Variants After Challenge with Serum |
| --- | --- |
| B1 | +++ (+++ = >2.5 relative activity over Rd2BB (SEQ ID NO: 10)) |
| B2 | +++ (+++ = >2.5 relative activity over Rd2BB (SEQ ID NO: 10)) |
| B3 | +++ (+++ = >2.5 relative activity over Rd2BB (SEQ ID NO: 10)) |
| B4 | + (+ = 0.5 to 1.5 relative activity over Rd2BB (SEQ ID NO: 10)) |
| B5 | + (+ = 0.5 to 1.5 relative activity over Rd2BB (SEQ ID NO: 10)) |
| B6 | + (+ = 0.5 to 1.5 relative activity over Rd2BB (SEQ ID NO: 10)) |
| B7 | +++ (+++ = >2.5 relative activity over Rd2BB (SEQ ID NO: 10)) |
| B8 | +++ (+++ = >2.5 relative activity over Rd2BB (SEQ ID NO: 10)) |
| B9 | + (+ = 0.5 to 1.5 relative activity over Rd2BB (SEQ ID NO: 10)) |
| B10 | + (+ = 0.5 to 1.5 relative activity over Rd2BB (SEQ ID NO: 10)) |
| B11 | ++ (++ = 1.5 to 2.5 relative activity over Rd2BB (SEQ ID NO: 10)) |
| B12 | +++ (+++ = >2.5 relative activity over Rd2BB (SEQ ID NO: 10)) |
| B13 | ++ (++ = 1.5 to 2.5 relative activity over Rd2BB (SEQ ID NO: 10)) |
